Consider 15 molecules from patent US20060263345A1, “Butyrylcholinesterase variant polypeptides with increased catalytic efficiency and methods of use” (priority 2003, published 2006).

Changes are numbered by the printed parent chain. Names and notes keep the numbering of the source. “Also recorded” adds a separate entry of the source.

B1: Y332S (protein)
chain: EDDIIIATKNGKVRGMNLTVFGGTVTAFLGIPYAQPPLGRLRFKKPQSLTKWSDIWNATKYANSCCQNIDQSFPGFHGSEMWNPNTDLSEDCLYLNVWIPAPKPKNATVLIWIYGGGFQTGTSSLHVYDGKFLARVERVIVVSMNYRVGALGFLALPGNPEAPGNMGLFDQQLALQWVQKNIAAFGGNPKSVTLFGESAGAASVSLHLLSPGSHSLFTRAILQSGSFNAPWAVTSLYEARNRTLNLAKLTGCSRENETEIIKCLRNKDPQEILLNEAFVVPYGTPLSVNFGPTVDGDFLTDMPDILLELGQFKKTQILVGVNKDEGTAFLVSGAPGFSKDNNSIITRKEFQEGLKIFFPGVSEFGKESILFHYTDWVDDQRPENYREALGDVVGDYNFICPALEFTKKFSEWGNNAFFYYFEHRSSKLPWPEWMGVMHGYEIEFVFGLPLERRDNYTKAEEILSRSIVKRWANFAKYGNPNETQNNSTSWPVFKSTEQKYLTLNTESTRIMTKLRAQQCRFWTSFFPKVLEMTGNIDEAEWEWKAGFHRWNNYMMDWKNQFNDYTSKKESCVGL
modifications: Butyrylcholinesterase variant
B2: A328W/V331L (protein)
chain: B1 chain with A328W, V331L, S332Y
modifications: Butyrylcholinesterase variant
B3: F227M (protein)
chain: B1 chain with F227M, S332Y
modifications: Butyrylcholinesterase variant
B4: F227T (protein)
chain: B1 chain with F227T, S332Y
modifications: Butyrylcholinesterase variant
B5: A328W/Y332M (protein)
chain: B1 chain with A328W, S332M
modifications: Butyrylcholinesterase variant
B6: F227P (protein)
chain: B1 chain with F227P, S332Y
modifications: Butyrylcholinesterase variant
B7: F227C (protein)
chain: B1 chain with F227C, S332Y
modifications: Butyrylcholinesterase variant
B8: F227S (protein)
chain: B1 chain with F227S, S332Y
modifications: Butyrylcholinesterase variant
B9: F227G (protein)
chain: B1 chain with F227G, S332Y
modifications: Butyrylcholinesterase variant
B10: V331L (protein)
chain: B1 chain with V331L, S332Y
modifications: Butyrylcholinesterase variant
B11: F227A (protein)
chain: B1 chain with F227A, S332Y
modifications: Butyrylcholinesterase variant
B12: A328W/Y332P (protein)
chain: B1 chain with A328W, S332P
modifications: Butyrylcholinesterase variant
B13: A199S (protein)
chain: B1 chain with A199S, S332Y
modifications: Butyrylcholinesterase variant
B14: Y332M (protein)
chain: B1 chain with S332M
modifications: Butyrylcholinesterase variant
B15: Y332P (protein)
chain: B1 chain with S332P
modifications: Butyrylcholinesterase variant

One data set in a line: microtiter isotope tracer [3H]-cocaine hydrolysis assay of immobilized butyrylcholinesterase variants. Type of data set: biochemical. Particulars: compared to human butyrylcholinesterase. An excerpt: At the conclusion of the isotope tracer assay, an aliquot of the reaction mix is acidified in order to take advantage of the solubility difference between the product and the substrate at pH 3.0. […] Prospect, Ill.) while [3H]-cocaine is not.
The supernatants isolated from each of the butyrylcholinesterase variant library clones contains variable butyrylcholinesterase enzyme concentrations.
At least three approaches are used to either increase the assay sensitivity or the assay signal.
Km values for (−)-cocaine are determined at 37° C. Vmax and Km values are calculated using Sigma Plot (Jandel Scientific, San Rafael, Calif.). The number of active sites of butyrylcholinesterase is determined by the method of residual activity using echothiopate iodide or diisopropyl fluorophosphates as titrants, as described previously by Masson et al., Biochemistry 36: 2266-2277 (1997). […] Purified human butyrylcholinesterase is used as the standard for the ELISA quantitation assay. The catalytic rate constant, kcat, is calculated by dividing Vmax by the concentration of active sites.
Consider B1, for which the “cocaine hydrolysis activity compared to butyrylcholinesterase (in words)” value was “increased cocaine hydrolysis activity”.
On the same count and under the same terms, for B2 the value was “enhanced cocaine hydrolase activity”; for B3, “enhanced cocaine hydrolase activity”.
Take B4: the “cocaine hydrolysis activity compared to butyrylcholinesterase (in words)” value is given as “enhanced cocaine hydrolase activity”.
Same read-out and setting: for B5 the value was “enhanced cocaine hydrolase activity”; for B6, “enhanced cocaine hydrolase activity”; for B7, “enhanced cocaine hydrolase activity”.
Same read-out and setting: for B8 the value was “enhanced cocaine hydrolase activity”; for B9, “enhanced cocaine hydrolase activity”.
Same read-out and setting: for B10 the value was “enhanced cocaine hydrolase activity; also recorded: increased cocaine hydrolysis activity”.
For the molecule B11, the “cocaine hydrolysis activity compared to butyrylcholinesterase (in words)” value was “enhanced cocaine hydrolase activity”.
The same measure, in the same setting: for B12 the value was “enhanced cocaine hydrolase activity”; for B13, “enhanced cocaine hydrolase activity”.
Same read-out and setting: for B14 the value was “enhanced cocaine hydrolase activity; also recorded: increased cocaine hydrolysis activity”; for B15, “enhanced cocaine hydrolase activity; also recorded: increased cocaine hydrolysis activity”.

The same data set, now with this note: compared to human butyrylcholinesterase SEQ ID NO: 44; approximate values.
With B2, the “increase in cocaine hydrolysis activity relative to butyrylcholinesterase” value is listed as “sixteen”.
With B3, the “increase in cocaine hydrolysis activity relative to butyrylcholinesterase” value is reported as “one-and-a-half”.
Still for that read-out and setting: for B4 the value was “two”; for B5, “twenty-four”.
As to B6, the “increase in cocaine hydrolysis activity relative to butyrylcholinesterase” value is on record as “three”.
Regarding B7, the “increase in cocaine hydrolysis activity relative to butyrylcholinesterase” value is reported as “two”.
Same read-out and setting: for B8 the value was “two”; for B9, “four”; for B11, “four”.
Same read-out and setting: for B12 the value was “ten”.
Same read-out and setting: then B13, with “two-and-a-half”.

The same data set, now with this note: compared to human butyrylcholinesterase; listed as SEQ ID NO: 20.
As to B1, the “cocaine hydrolysis activity compared to butyrylcholinesterase (in words)” value is given as “increased cocaine hydrolysis activity”.

Still in this data set, the particulars now being: compared to human butyrylcholinesterase; listed as SEQ ID NO: 22.
In the case of B14, the “cocaine hydrolysis activity compared to butyrylcholinesterase (in words)” value was “increased cocaine hydrolysis activity”.

Still in this data set, the particulars now being: compared to human butyrylcholinesterase; listed as SEQ ID NO: 24.
With B15, the “cocaine hydrolysis activity compared to butyrylcholinesterase (in words)” value is on record as “increased cocaine hydrolysis activity”.

Staying with this data set, now noted: compared to human butyrylcholinesterase; listed as SEQ ID NO: 26.
Take B10: the “cocaine hydrolysis activity compared to butyrylcholinesterase (in words)” value was “increased cocaine hydrolysis activity”.

The same data set, now with this note: compared to human butyrylcholinesterase; listed as Y322S.
Take B1: the “cocaine hydrolysis activity compared to butyrylcholinesterase (in words)” value is on record as “enhanced cocaine hydrolase activity”.

Staying with this data set, now noted: relative to wild-type = 1; catalytic efficiency (Vmax/Km), [3H]-cocaine microtiter assay.
B2: the “Relative Activity of butyrylcholinesterase variants (WT = 1) with enhanced cocaine hydrolase activity” value (“Relative Activity” below) is reported as 16.
B3: the “Relative Activity” value is recorded as 1.4.
B4: the “Relative Activity” value amounted to 1.9.
On the same count and under the same terms, for B5 the value was 24.
Same read-out and setting: then B6, with 2.9; and B7, with 1.9.
For B8, the “Relative Activity” value worked out at 2.3.
On the same count and under the same terms, for B9 the value was 4.0; for B11, 4.1.
As for B12, the “Relative Activity” value worked out at 10.
The same measure, in the same setting: then B13, with 2.5.
